To fix the notation:
B1: KRT13 (parent)
chain: YGGGLGGGFGGGFAGGFVDFGACD
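Further: lentivirally expressed fusions sorted by FACS into six bins by GFP to DsRed ratio, PSI derived from sequencing read proportions per bin multiplied by bin number.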

Variants of B1 are the subject of the data set. The experiment in a line: protein stability index of a GFP-peptide fusion (GPS, HEK-293T) (PSI 1-6); higher = more stable. To be noted: c terminus: a fixed tail appended.
Regarding YGGGLGGGFGFGFAGGFVDFGACD, the protein stability index came to 2.07. In the case of YGGGLGGGFGYGFAGGFVDFGACD it was 4.04. In the case of YGGGLGGGFGRGFAGGFVDFGACD it was 1.86; in that of YGGGLGGGFGPGFAGGFVDFGACD, 2.25. Consider YGGGLGGGFGDGFAGGFVDFGACD, for which the protein stability index worked out at 2.38. Consider YGGGLGGGFGHGFAGGFVDFGACD, for which the protein stability index came to 1.75. Under YGGGLGGGFGTGFAGGFVDFGACD stands 1.84. In the case of YGGGLGGGFGMGFAGGFVDFGACD it was 2.25; in that of YGGGLGGGFGKGFAGGFVDFGACD, 1.97. Under YGGGLGGGFGSGFAGGFVDFGACD stands 1.92; under YGGGLGGGFGGGFRGGFVDFGACD, 2.03; under YGGGLGGGFGGGFHGGFVDFGACD, 3.03.

For YGGGLGGGFGGGFCGGFVDFGACD, the protein stability index stood at 2.47. Under YGGGLGGGFGGGFNGGFVDFGACD stands 1.48; under YGGGLGGGFGGGFQGGFVDFGACD, 3.11; under YGGGLGGGFGGGFDGGFVDFGACD, 1.86.

In the case of YGGGLGGGFGGGFWGGFVDFGACD, the protein stability index came to 2.15. Under YGGGLGGGFGGGFEGGFVDFGACD stands 1.81; under YGGGLGGGFGGGFSGGFVDFGACD, 1.86; under YGGGLGGGFGGGFTGGFVDFGACD, 1.84. In the case of YGGGLGGGFGGGFKGGFVDFGACD, the protein stability index turned out to be 1.82. Under YGGGLGGGFGGGFPGGFVDFGACD stands 2.02; under YGGGLGGGFGGGFVGGFVDFGACD, 1.89; under YGGGLGGGFGGGFYGGFVDFGACD, 2.65. Take YGGGLGGGFGGGFFGGFVDFGACD: the protein stability index came out at 2.8. YGGGLGGGFGGGFIGGFVDFGACD: the protein stability index was determined as 2.46. As to YGGGLGGGFGGGFMGGFVDFGACD, the protein stability index is 3.11.

For YGGGLGHGFGGGFAGGFVDFGACD, the protein stability index was 1.92. In the case of YGGGLGIGFGGGFAGGFVDFGACD it was 1.9.

Take YGGGLGSGFGGGFAGGFVDFGACD: the protein stability index was 1.48. In the case of YGGGLGCGFGGGFAGGFVDFGACD it was 3.15; in that of YGGGLGPGFGGGFAGGFVDFGACD, 1.84; in that of YGGGLGRGFGGGFAGGFVDFGACD, 1.74. In the case of YGGGLGTGFGGGFAGGFVDFGACD it was 1.49. Under YGGGLGEGFGGGFAGGFVDFGACD stands 1.91. Regarding YGGGLGNGFGGGFAGGFVDFGACD, the protein stability index turned out to be 1.31. In the case of YGGGLGYGFGGGFAGGFVDFGACD it was 2.36; in that of YGGGLGQGFGGGFAGGFVDFGACD, 1.23. Under YGGGLGMGFGGGFAGGFVDFGACD stands 2.46; under YGGGLGFGFGGGFAGGFVDFGACD, 3.32.

As to YGGGLGDGFGGGFAGGFVDFGACD, the protein stability index worked out at 1.89.

With YGGGLGAGFGGGFAGGFVDFGACD, the protein stability index was found to be 2.41.

With YGGGLGLGFGGGFAGGFVDFGACD, the protein stability index was 1.81. In the case of YGGGLGGGFGGGRAGGFVDFGACD it was 1.77. Under YGGGLGGGFGGGCAGGFVDFGACD stands 2.11.

As to YGGGLGGGFGGGSAGGFVDFGACD, the protein stability index turned out to be 2.16.

For the variant YGGGLGGGFGGGAAGGFVDFGACD, the protein stability index is 1.55. In the case of YGGGLGGGFGGGLAGGFVDFGACD it was 1.28; in that of YGGGLGGGFGGGTAGGFVDFGACD, 2.07.

On to YGGGLGGGFGGGNAGGFVDFGACD, for which the protein stability index amounted to 1.79.

For the variant YGGGLGGGFGGGGAGGFVDFGACD, the protein stability index came to 2.08. In the case of YGGGLGGGFGGGHAGGFVDFGACD it was 2.44. For YGGGLGGGFGGGDAGGFVDFGACD, the protein stability index stood at 2.1. Turning to YGGGLGGGFGGGMAGGFVDFGACD, the protein stability index was 2.28. Consider YGGGLGGGFGGGEAGGFVDFGACD, for which the protein stability index was found to be 2.32. Take YGGGLGGGFGGGKAGGFVDFGACD: the protein stability index was determined as 2.25. In the case of YGGGLGGGFGGGIAGGFVDFGACD it was 1.79. In the case of YGGGLGGGFGGGPAGGFVDFGACD, the protein stability index was 2.09. Under YGGGLGGGFGGGQAGGFVDFGACD stands 2.8. Under YGGGLGGGFGGGYAGGFVDFGACD stands 2.39. For the variant YGGGLGGGFGGGVAGGFVDFGACD, the protein stability index was 2.12. In the case of YGGGLGGGFGGFFAGGFVDFGACD it was 3.05. Under YGGGLGGGFGGDFAGGFVDFGACD stands 2.22; under YGGGLGGGFGGIFAGGFVDFGACD, 2.4; under YGGGLGGGFGGKFAGGFVDFGACD, 1.69.

Regarding YGGGLGGGFGGTFAGGFVDFGACD, the protein stability index amounted to 2.68.

Regarding YGGGLGGGFGGCFAGGFVDFGACD, the protein stability index amounted to 2.75. As for YGGGLGGGFGGRFAGGFVDFGACD, the protein stability index came out at 2.24.

For YGGGLGGGFGGQFAGGFVDFGACD, the protein stability index was found to be 1.39. Under YGGGLGGGFGGYFAGGFVDFGACD stands 3.95; under YGGGLGGGFGGMFAGGFVDFGACD, 2.92. Turning to YGGGLGGGFGGEFAGGFVDFGACD, the protein stability index stood at 1.84. In the case of YGGGLGGGFGGHFAGGFVDFGACD, the protein stability index amounted to 1.4. In the case of YGGGLGGGFGGWFAGGFVDFGACD it was 1.34. Under YGGGLGGGFGGNFAGGFVDFGACD stands 1.04. In the case of YGGGLGGGFGGSFAGGFVDFGACD it was 1.77; in that of YGGGLGGGFGGPFAGGFVDFGACD, 2.17; in that of YGGGLGGGFGGLFAGGFVDFGACD, 2.25.

For the variant YGGGLGGGFGGVFAGGFVDFGACD, the protein stability index came to 2.42. Under YGGGLGGGFGGGFAGMFVDFGACD stands 2.76; under YGGGLGGGFGGGFAGKFVDFGACD, 1.53.

Regarding YGGGLGGGFGGGFAGSFVDFGACD, the protein stability index stood at 1.83.

Consider YGGGLGGGFGGGFAGNFVDFGACD, for which the protein stability index is 1.71.

YGGGLGGGFGGGFAGTFVDFGACD: the protein stability index came out at 2.02. In the case of YGGGLGGGFGGGFAGHFVDFGACD it was 1.4. Turning to YGGGLGGGFGGGFAGCFVDFGACD, the protein stability index was 3.82. As to YGGGLGGGFGGGFAGLFVDFGACD, the protein stability index was determined as 4.03.

As for YGGGLGGGFGGGFAGIFVDFGACD, the protein stability index is 2.53. YGGGLGGGFGGGFAGRFVDFGACD: the protein stability index was 1.8. In the case of YGGGLGGGFGGGFAGEFVDFGACD it was 1.69.

Regarding YGGGLGGGFGGGFAGVFVDFGACD, the protein stability index came to 1.87. Under YGGGLGGGFGGGFAGDFVDFGACD stands 1.94; under YGGGLGGGFGGGFAGQFVDFGACD, 2.36; under YGGGLGGGFGGGFAGAFVDFGACD, 1.81.

(Values after the supplement of paper PMC10567573.)
